The text below walks through data of paper PMC6906086.

The target of one data set is Lsr2 (Mycobacterium tuberculosis H37Rv, UniProt P9WIP7 1-112). Nature of the data set: EMSA; 0.95-7.6 uM Lsr2. As to conditions: protein: recombinant; (pET15-TEV, Ni-NTA); chain copies: 2; blunt.
The target of another data set is Lsr2BD T112D (Mycobacterium tuberculosis H37Rv, UniProt P9WIP7 66-112, T112D). Nature of the data set: fluorescence anisotropy. As to conditions: protein: recombinant, blunt. (In fluorescence polarisation assays a small probe gives low polarisation when free and higher when bound to something large.)
In a further data set the target is Lsr2BD WT (Mycobacterium tuberculosis H37Rv, UniProt P9WIP7 66-112). Nature of the data set: fluorescence anisotropy. As to conditions: protein: recombinant; tags: 6xHis; blunt.
The next data set addresses Lsr2BD T112A (Mycobacterium tuberculosis H37Rv, UniProt P9WIP7 66-112, T112A). Put plainly: fluorescence anisotropy; pH 7.5; 4 nM DNA. As to conditions: protein: recombinant; label: 5' Alexa Fluor 488; blunt.

B1: leuS MUT (dsDNA)
DNA 1: AACTCGGCGAGGTCGGTCAG
DNA 2: CTGACCGACCTCGCCGAGTT
Regarding B1, in the data set with Lsr2, the binding result is recorded as “binds”.

B2: GC-rich fragment (leuS MUT sequence), anisotropy (dsDNA)
DNA 1: AACTCGGCGAGGTCGGTCAG
DNA 2: CTGACCGACCTCGCCGAGTT
B2: the binding result with Lsr2BD T112D and with Lsr2BD WT was “no binding” throughout.

B3: AT-rich 14-mer (dsDNA)
DNA 1: CGCGCATATATGCG
DNA 2: CGCATATATGCGCG
One may read the Kd as a measure of binding affinity in units of concentration. In the case of B3, in the data set with Lsr2BD T112D (label: 5' Alexa Fluor 488), the binding result was “no binding”. Further, the Kd with Lsr2BD T112A is 20 ± 8 nM.
